Biological target: CD19 on CD19+ cells (Nalm6 and Namalwa) (human) (UniProt P15391)
Test: cell-based or functional assay

Sequence of UniProt P15391 (P15391 20-556): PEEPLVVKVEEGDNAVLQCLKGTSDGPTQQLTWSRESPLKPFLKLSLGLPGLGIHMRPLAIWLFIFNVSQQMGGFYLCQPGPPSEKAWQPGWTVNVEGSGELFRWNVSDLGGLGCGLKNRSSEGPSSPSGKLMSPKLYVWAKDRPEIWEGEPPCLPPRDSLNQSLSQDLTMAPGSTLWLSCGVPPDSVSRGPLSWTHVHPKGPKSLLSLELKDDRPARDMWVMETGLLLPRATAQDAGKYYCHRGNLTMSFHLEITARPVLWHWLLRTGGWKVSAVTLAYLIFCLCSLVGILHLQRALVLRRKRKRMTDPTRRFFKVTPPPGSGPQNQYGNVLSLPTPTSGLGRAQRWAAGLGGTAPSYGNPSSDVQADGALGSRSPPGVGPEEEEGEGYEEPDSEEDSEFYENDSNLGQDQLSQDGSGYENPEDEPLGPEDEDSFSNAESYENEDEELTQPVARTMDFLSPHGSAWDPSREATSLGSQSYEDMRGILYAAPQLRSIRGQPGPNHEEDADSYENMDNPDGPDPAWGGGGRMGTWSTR

Q: With “ARI, a second-generation anti-CD19 CAR, expressed on primary T cells from the AWARI lentiviral vector (AW promoter, SEQ ID NO 1)” as the substance, how does the specific lysis of CD19+ cells (Nalm6, Namalwa) after 48 h co-culture, relative to non-transduced T cells read?
A: 70 to 80%

From patent US20220009993A1
